According to the nanobody polyreactivity screen of Harvey et al. (2022):

assay: yeast display, Sf9 membrane polyspecificity reagent, FACS + sequencing; frameworks hold sequencing errors
In short: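 Nanobodies from a synthetic yeast display library (Saccharomyces cerevisiae BJ5465), induced 36–48 hours with galactose, were stained 1 hour at 4 °C with 10% biotinylated, detergent-solubilized Sf9 membrane reagent, enriched on streptavidin microbeads, then FACS-sorted. Anti-HA (expression) and streptavidin (reagent binding) fluorescence set low and high (top ~1%) gates. Polyreactivity labels come from the gate of origin. Genes were colony-PCR amplified, MiSeq 2 × 250 sequenced and filtered by CDR length.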

Sequence	polyreactivity (PSR sort gate)
QVQLVESGGGLVQAGGSLRLSCAASGRTFDYNTMGWYRPAPGKDRELVAAISASGGSTYYADSVKGRFTISRDNAKNTVYLQMNSLKPEDTAVYYCNTYAGVEYYHWGQGTQVTVSS	low polyreactivity
QVQLVESGGGLVQAGGSLRLSCAASGRTFDYYAMGWYRQAPGKERELVAAISSTGTSTYYGDSVKGRFTISRDNAKNTVYLQMNRLKPVDTAVYYCSAVSWYEYDYWGQGTQVSVSS	high polyreactivity
QVQLVESGGGLVQAGGSLRLSCAASGRTFDYYVMGWYRQAPGKERELVAAISTSGGRTYYADSVKGRFTISRDNAKNTVYLQMNSLKPEDTAVYYCAAYWGGWSFRYLYDYWGQGTQVTVSS	high polyreactivity
QVQLVESGGGLVQAGGSLRLSCAASGRTFEANAMGWYRQAPGKERELVASISRSGGNTYYADSVKGRFTISRDNAKNTGYLQMNSLKPEDTAVYYCAARFRVGQRRFNYWGQGTQVTVSS	high polyreactivity
QVQLVESGGGLVQAGGSLRLSCAASGRTFEFYTMGWYRQAPGKERELVAAINWSGSRTYYADSVKGRFTISRDNAKNTVYLQMNSLKPEDTAVYYCNAGEKRGLISIQGYDYWGQGTQVTVSS	high polyreactivity
QVQLVESGGGLVQAGGSLRLSCAASGRTFEGNAMGWYRQAPGKERELDAAITSGGRTNYADSVKGRFTISRDNAKNTVYLQMNSLKPEDTAVYYCAVETRDRSTSFPGQAYDYWGQGSQVTVSS	low polyreactivity
QVQLVESGGGLVQAGGSLRLSCAASGRTFEGNAMGWYRQAPGKERELVAAINSSGGSTYYADSVKGRFTISRDNAKNTVYLQMNSLKPEDTAVYYCNAVAGPQGVKLYDYWGQGTQVTVSS	low polyreactivity
QVQLVESGGGLVQAGGSLRLSCAASGRTFEGNAMGWYRQAPGKERELVAAITSGGRTNYADSVKGRFTISRDNAKNTVYLQMNSLKPEDTAVYYCAAGQVSVGTIAKYDYWGQGTQVTVSS	low polyreactivity
QVQLVESGGGLVQAGGSLRLSCAASGRTFELNAMGWYRQAPGKERELVAAISWSGGSTYYADSVKGRFTISRDNAKNTVYLQMNSLKPEDTAVYYCAAQYQQGPFVKYYYWGQGTQVTVSS	high polyreactivity
QVQLVESGGGLVQAGGSLRLSCAASGRTFEQYAMGWYRQAPGKERELVAAISGSGGSTFYADSVKGRFTISRDNAKNTVYLQMNSLKPEDTAVYYCAVDAYPPFFYFTSVWFSYDYWGQGTQVTVSS	low polyreactivity
QVQLVESGGGLVQAGGSLRLSCAASGRTFESYAMGWYRPAPGKERELVAAITWSGGDTYYADSVKGRFTISRDNAKNTVYLQMNSLKPEDTAVYYCAKEQGLYSVSPYDYWGQGTQVTVSS	low polyreactivity
QVQLVESGGGLVQAGGSLRLSCAASGRTFESYAMGWYRQAAGKERELVAAIRSRGGSTNYADSVKGRFTISRDNAKNTVYLQMNSLKPEDTAVYYCNKDGTWVARAVTYADFDYWGQGTQVTVSS	low polyreactivity
QVQLVESGGGLVQAGGSLRLSCAASGRTFETNAMGWYRQAPGKERELVASINWSGGSTYYADSVKGRFTISRDNAKNTVYLQMNILKPEDTAVYYCAADHSYWDWWSYYYWGQGTQVTVSS	low polyreactivity
QVQLVESGGGLVQAGGSLRLSCAASGRTFEYYAMGWYRQAPGKERELVAAIDSGGSTNYADSVKGRFTISRDNAKNTVYLQMNSLKPEDTAVYYCATEVDQNYNYDYWGQCTQVTVSS	low polyreactivity
QVQLVESGGGLVQAGGSLRLSCAASGRTFEYYAMGWYRQAPGKERELVAAIDSGGSTNYADSVKGRFTISRDNAKNTVYLQMNSLKPEDTAVYYCATEVDQNYNYDYWGQGTQVTVSS	low polyreactivity
QVQLVESGGGLVQAGGSLRLSCAASGRTFFCYAMGWYRQAPGKERELVAAITYRGGGTYYADSVKGRFTISRDNAKNTVNLQMNSLKPEDTAVYYCAAEYWVGVYLYDYWGQGTQVTVSS	high polyreactivity
QVQLVESGGGLVQAGGSLRLSCAASGRTFFDYAMGWYRQAPGKERELVAAITSSGSSTYYADSVKGRFTISRDNAKNTVYLQMNSLKPEDTAVYYCAAGASANKKITSYDYWGQGTQVTVSS	low polyreactivity
QVQLVESGGGLVQAGGSLRLSCAASGRTFFFNAMGWYRQAPGIERELVATISWNGGDTYYADSVKGRFTISRDNAKNTVYLQMNSLKPEDTAVYDCNARVLWGQGTQVTVSS	high polyreactivity
QVQLVESGGGLVQAGGSLRLSCAASGRTFFGYAMGWYRQAPGKERELVAAISRGGGRTYYADSVKGRFTISRDNAKNTVYLQMNSLKPEDTAVYYCNAVTFSFYLYDWGQGTQVTVSS	high polyreactivity
QVQLVESGGGLVQAGGSLRLSCAASGRTFFGYAMGWYRQAPGKERELVAAISSRGDSTYYADSVKGRFTISRDNAKNTVYLQMNSLKPEDTAVYYCNAPVYTAAGYRYGTVRYGYWGQGTQVTVSS	low polyreactivity
QVQLVESGGGLVQAGGSLRLSCAASGRTFFGYAMGWYRQATGKERELVAAINWGGASTYYADSVKGRFTISRDNAKNTVYLQMNSLKPEDTAVYYCAADSVPSRPTYGRYDYWGQGTQVTVSS	low polyreactivity

Sequence	polyreactivity (PSR sort gate)
QVQLVESGGGLVQAGGSLRLSCAASGRTFFHYAMGWYRQAPGKERELVAGISSGGRTKYADSVKGRFTISRDNAKNTVYLQMNSLKPEDTAVYYCAASYIVWLTRGAPRKRFDYWGQGTQVTVSS	high polyreactivity
QVQLVESGGGLVQAGGSLRLSCAASGRTFFINTMGWYRQAPGKEREFVAAITWSAGRTYYADSVKGRFTISRDNAKNTVYLQMNSLKPEDTAVYYCAAALHGHTFPFYYWGQGTLVTVSS	low polyreactivity
QVQLVESGGGLVQAGGSLRLSCAASGRTFFKYVMGWYRQAPGKERELVAAISSGGSTNYADSVKGRFTISRDNAKNTVYLQMNSLKPEDTAVYYCATYDPARSTQGYDYWGQGTQVTVSS	high polyreactivity
QVQLVESGGGLVQAGGSLRLSCAASGRTFFKYVMGWYRQAPGKERELVAAISYRSGSTYYADSVKGRFTISRDNAKNTVYLQMNSLKPEDTAVYYCAIEPPPVKGDYWGQGTQVTVSS	low polyreactivity
QVQLVESGGGLVQAGGSLRLSCAASGRTFFNYGMGWYRQAPGKEREFVARISFSGGSTYYADSVKGRFTISRDNAKNTVYLQMNSVKPEDTAVYYCNARVFPFAYRYGYWGQGTQVTVSS	high polyreactivity
QVQLVESGGGLVQAGGSLRLSCAASGRTFFRNVMGWYRQAPGKERELVAGITWTGGTTYYADSVKGRFTISRDNAKNTVYLQMNSLKPEDTAVYYCATRNYAVVPSVRREGYYWGQGTQVTVSS	low polyreactivity
QVQLVESGGGLVQAGGSLRLSCAASGRTFFRYVMGWYRQAPGKERELVAAISRSGGSTYYADSVKGRFTISRDNAKITVYLQMNSLKPEDTAVYYCNTVARSTVVPTEFDYWGQGTQVTVSS	high polyreactivity
QVQLVESGGGLVQAGGSLRLSCAASGRTFFSYAMGWYRQAPGKERELVAAITYSGGRTYYADSVKGRFTISRDNAKNTVYLQMNSLKPVDTAVYYCAATHYREKMDYWGQGTQVTVSS	low polyreactivity
QVQLVESGGGLVQAGGSLRLSCAASGRTFFTYAMGWYRQAPGKERELVAAITGSGGSTSYADSVKGRFTISRDNAKNTVYLQMNSLKPEDTAVYYCAADWQELEYDYWGQGTQVTVSS	low polyreactivity
QVQLVESGGGLVQAGGSLRLSCAASGRTFFVYTMGWYRQAPGKERELVAAITSDTSTTYADSVKGRFTISRDNAKNTVYLQMISLKPEDTAVYYCAAEGYVGYYDYDYWGQGTQVTVSS	low polyreactivity
QVQLVESGGGLVQAGGSLRLSCAASGRTFFWNAMGWYRQAPGTERELVAAITWSGGSTYYADSVKGRFTLSRDNAKNTVYLQMNSLKPEDTAVYYCAAVVSEYVWRYEYWGQGTQVTVSS	low polyreactivity
QVQLVESGGGLVQAGGSLRLSCAASGRTFFWYAMGWYRQAPGKERDLVAAIRGAGRTNYADSVKGRFTISRYNAKNTVYLQMNSLKPEDTAVYYCAAQHYPWRRYDYWGQGTQVTVSS	high polyreactivity
QVQLVESGGGLVQAGGSLRLSCAASGRTFFYNAMGWYRQAPGKERELVAAISSGGGSTYYADSVKGRFTISRDNAKNTVYLQMNSLKPEDTAVYYCAAASYRQPGYGYWGQGTQVTVSS	high polyreactivity
QVQLVESGGGLVQAGGSLRLSCAASGRTFGAYAMGWYRQAPGKERELVASISRSGGTTYYADSVKGRFTISRDNAKNTVYLQMNSLKPEDTAVYYCAAQYVRYGHYYWGQGTQVTVSS	high polyreactivity
QVQLVESGGGLVQAGGSLRLSCAASGRTFGAYTMGGYRQAPGKDRELVAAISSGTRTNYADSVKGRFTISRDNAKNTVYLQMNSLIPEDTAVYYCAATVLGHNRVYYWGQGTQVTVSS	low polyreactivity
QVQLVESGGGLVQAGGSLRLSCAASGRTFGAYTMRWYRQAPGTERELVAAINRSGGDTYYADSVKGRFTISRDTAKNTVYLQMNSLKPEDNAVYYCNAEPRYGTYDYWGQGTQVTVSS	low polyreactivity
QVQLVESGGGLVQAGGSLRLSCAASGRTFGDYAKGWYRQAPGKERELVAAISKSGGITYYADSVKGRFTISRDNAKNTVYLQMNSLKPEDTAVYYCAARRSGEGNYWGQGTQVTVSS	high polyreactivity
QVQLVESGGGLVQAGGSLRLSCAASGRTFGEYAMGWYRQAPGKERELVAAISSAGSTYYADSVKGRFTISRDNAKNTVYLQMNSMKPDDTAVYYCASSRKYGYGYWGQRTQVTVSS	high polyreactivity
QVQLVESGGGLVQAGGSLRLSCAASGRTFGEYVMGGYRQAPGKERELVASISRRGGSTYYADSVKGRFTLSRDNAKNTVYVLMNSQNPEDTAVYYCAKYRTQWSKNLYPYGFDYWGHGTQVTVSS	low polyreactivity
QVQLVESGGGLVQAGGSLRLSCAASGRTFGFNAMGWSRPAPGKERELVAVITRGGSTYADSVKGRFTISRDNAKNTVYLQMNSLKPEDTAVYYCAAYRYGFKTWMDYWGQGTQVTVSS	high polyreactivity
